Assay results: US20110195494A1 (Boehringer Ingelheim, published 2011)
Positions count from the first letter of the chain named. Where two headings read alike, the source gives them in different places. Each block holds one binder with its values, some of them ahead of it.

Columns and labels:
[1] = target: T1, full length human DLL4 on overexpressing CHO or HEK293 cells (human, UniProt Q9NR61 27-685); test: FMAT competition: labelled hNotch1/Fc on CHO-hDLL4 cells
T1 construct: also called CHO-hDLL4; HEK293-hDII4
T1 sequence (Q9NR61 27-685 limits assumed): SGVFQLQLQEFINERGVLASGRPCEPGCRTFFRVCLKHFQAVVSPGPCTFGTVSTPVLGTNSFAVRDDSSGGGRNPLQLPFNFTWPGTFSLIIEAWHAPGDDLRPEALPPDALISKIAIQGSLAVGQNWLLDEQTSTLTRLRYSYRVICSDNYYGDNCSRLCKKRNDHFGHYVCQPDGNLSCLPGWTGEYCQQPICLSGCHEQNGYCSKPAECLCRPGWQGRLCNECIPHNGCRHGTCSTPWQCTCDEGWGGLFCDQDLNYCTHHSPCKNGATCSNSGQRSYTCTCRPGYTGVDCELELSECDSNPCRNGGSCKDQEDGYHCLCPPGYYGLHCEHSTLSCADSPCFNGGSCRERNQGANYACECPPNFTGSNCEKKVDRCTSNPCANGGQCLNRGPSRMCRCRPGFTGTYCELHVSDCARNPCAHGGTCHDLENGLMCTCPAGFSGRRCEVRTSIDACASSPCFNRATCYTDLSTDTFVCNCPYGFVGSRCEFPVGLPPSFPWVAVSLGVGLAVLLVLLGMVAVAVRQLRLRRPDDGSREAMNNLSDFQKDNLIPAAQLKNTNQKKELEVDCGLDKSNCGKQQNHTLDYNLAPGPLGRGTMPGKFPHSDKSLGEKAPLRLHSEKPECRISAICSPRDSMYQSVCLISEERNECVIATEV
From the text: (§1) All calculations are based on the FL1 total signal which comprises the average of the fluorescence per well times the number of counts per well.

[2] = target: T2, full length mouse DLL4 on overexpressing CHO or HEK293 cells (mouse, UniProt Q9JI71 27-686); test: FMAT competition: labelled hNotch1/Fc on CHO-mDLL4 cells
T2 construct: whole, on cells; also called CHO-mDLL4; mDLL4
T2 sequence (Q9JI71 27-686): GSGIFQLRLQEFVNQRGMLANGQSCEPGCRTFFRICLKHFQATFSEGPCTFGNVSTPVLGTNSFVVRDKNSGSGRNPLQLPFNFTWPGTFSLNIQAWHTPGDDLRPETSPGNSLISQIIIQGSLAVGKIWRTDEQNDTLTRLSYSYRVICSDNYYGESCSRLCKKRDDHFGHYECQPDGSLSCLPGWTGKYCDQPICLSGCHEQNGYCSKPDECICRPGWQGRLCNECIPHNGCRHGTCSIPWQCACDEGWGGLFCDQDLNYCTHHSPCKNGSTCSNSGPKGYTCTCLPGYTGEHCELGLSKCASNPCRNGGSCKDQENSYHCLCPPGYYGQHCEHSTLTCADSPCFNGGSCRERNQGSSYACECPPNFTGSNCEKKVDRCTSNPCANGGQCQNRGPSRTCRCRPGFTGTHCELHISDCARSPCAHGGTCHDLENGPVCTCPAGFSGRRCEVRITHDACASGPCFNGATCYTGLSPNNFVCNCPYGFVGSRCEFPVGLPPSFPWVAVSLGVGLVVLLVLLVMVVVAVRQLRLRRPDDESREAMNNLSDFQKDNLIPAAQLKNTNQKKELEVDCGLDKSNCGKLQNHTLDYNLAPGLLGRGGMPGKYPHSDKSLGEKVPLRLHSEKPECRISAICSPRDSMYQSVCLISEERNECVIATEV
From the text: as §1

[3] = target: T2, full length mouse DLL4 on …; test: FMAT, hNotch1/Fc on CHO-mDLL4, periplasmic extract
From the text: as §1

[4] = target: T1, full length human DLL4 on …; test: FMAT, hNotch1/Fc on CHO-hDLL4, periplasmic extract
From the text: as §1

human DLL1 (Alexis) [5] = target: T3, human DLL1 (Alexis) (human, UniProt O00548 18-545, limits assumed); test: binding ELISA, coated rhDLL1
T3 construct: also called hDLL1; rhDLL1
T3 sequence (looked up): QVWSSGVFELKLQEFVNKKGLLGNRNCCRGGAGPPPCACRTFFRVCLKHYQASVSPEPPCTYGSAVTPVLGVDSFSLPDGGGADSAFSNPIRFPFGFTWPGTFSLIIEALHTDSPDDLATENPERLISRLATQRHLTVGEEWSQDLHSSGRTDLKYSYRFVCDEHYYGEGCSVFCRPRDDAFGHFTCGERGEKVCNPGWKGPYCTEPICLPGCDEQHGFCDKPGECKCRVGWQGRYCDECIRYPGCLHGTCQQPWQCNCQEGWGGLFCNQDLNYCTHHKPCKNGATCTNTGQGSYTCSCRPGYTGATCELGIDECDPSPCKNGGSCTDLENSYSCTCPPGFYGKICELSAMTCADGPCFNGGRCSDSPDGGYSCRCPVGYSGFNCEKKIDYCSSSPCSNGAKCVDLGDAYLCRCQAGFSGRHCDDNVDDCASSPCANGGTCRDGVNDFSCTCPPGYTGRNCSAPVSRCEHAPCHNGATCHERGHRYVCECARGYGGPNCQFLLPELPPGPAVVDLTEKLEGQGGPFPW

human Jagged-1 (Alexis) [6] = target: T4, human Jagged-1 (Alexis) (human, UniProt P78504 34-1067, limits assumed); test: binding ELISA, coated rhJagged-1
T4 construct: also called hJag-1; hJAG1

[7] = target: T5, recombinant human DLL4, C-terminally His-tagged extracellular domain (R&D Systems) (human, UniProt Q9NR61 25-522, biotinylated where used in competition ELISA, AlphaScreen and on SA chips); test: binding ELISA, coated rhDLL4
T5 construct: also called rhDLL4; hDLL4; not shown: C-terminal His tag
T5 sequence (Q9NR61 25-522): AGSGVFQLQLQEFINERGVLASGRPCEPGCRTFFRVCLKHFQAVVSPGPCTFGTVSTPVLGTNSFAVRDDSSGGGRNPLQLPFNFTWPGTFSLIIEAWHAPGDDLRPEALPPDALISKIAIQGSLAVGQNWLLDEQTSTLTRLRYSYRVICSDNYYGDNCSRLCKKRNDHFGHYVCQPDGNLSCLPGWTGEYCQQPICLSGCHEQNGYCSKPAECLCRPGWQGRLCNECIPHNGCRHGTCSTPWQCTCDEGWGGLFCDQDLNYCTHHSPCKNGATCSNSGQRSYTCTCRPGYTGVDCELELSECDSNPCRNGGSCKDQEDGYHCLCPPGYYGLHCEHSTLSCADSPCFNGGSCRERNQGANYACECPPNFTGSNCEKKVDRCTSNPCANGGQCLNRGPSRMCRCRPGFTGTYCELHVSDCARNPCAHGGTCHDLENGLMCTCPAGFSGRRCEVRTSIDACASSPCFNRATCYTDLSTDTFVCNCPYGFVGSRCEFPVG

[8] = target: T5, recombinant human DLL4, C-terminally …; test: hDLL4/hNotch1-Fc AlphaScreen, periplasmic extract
Description: Periplasmic extracts are screened in a human DII4/human Notch1 AlphaScreen assay to assess the blocking capacity of the expressed VHHs. Human DII4 is biotinylated using biotin (Sigma, St Louis, Mo., USA) and biotinamidohexanoic acid 3-sulfo-N-hydroxysuccinimide ester sodium salt (Sigma, St Louis, Mo., USA). […] To evaluate the neutralizing capacity of the VHHs, dilution series of the periplasmic extracts are pre-incubated with biotinylated human DII4. To this mixture, the acceptor beads and the streptavidin donor beads are added and further incubated for 1 hour at room temperature. Fluorescence is measured by reading plates on the Envision Multilabel Plate reader (Perkin Elmer, Waltham, Mass., USA) using an excitation wavelength of 680 nm and an emission wavelength of 520 nm.

[9] = target: T5, recombinant human DLL4, C-terminally …; test: competition ELISA, periplasmic extract
human DLL1 (Alexis) [10] = target: T3, human DLL1 (Alexis); test: binding ELISA, coated rhDLL1; remark: listed apart in the source
human Jagged-1 (Alexis) [11] = target: T4, human Jagged-1 (Alexis); test: binding ELISA, coated rhJagged-1; remark: listed apart in the source

binding result [1]: binds | binding result [2]: binds
B1: 78B03 (VHH)
VHH: EVQLVESGGGLVQAGGSLRLSCAASGRTFSNYIMGWFRQAPGKEREFVAGISRYGDYTAYADSVKGRFTISRDNVKNTVYLRMNSLKPDDTAVYYCAANEGYCSGYGCYEDSGQYDYWGQGTQVTVSS
notes: also called DLLBII78B03

FMAT mDLL4 % inhibition [3]: 93% | IC50 (read off the curve) [2]: ~50 nM | FMAT hDLL4 % inhibition [4]: 87%
B2: DLLBII83G01 (VHH)
VHH: B1 VHH with G55A, A59G
notes: tested as periplasmic extract; also called DLLBII83G1; not shown: C-terminal c-myc tag and His6 tag

binding result (human DLL1 (Alexis) [5]): no binding (tested: 1e-6 M) | binding result (human Jagged-1 (Alexis) [6]): no binding (tested: 1e-6 M) | EC50 (read off the curve) [7]: ~0.6 nM
B3: DLLBII129B05 (VHH)
VHH: EVQLVESGGGLVQAGGSLRLSCAASGRTFSSYAMAWYRQAPGKEREYVAAIRWSGGTAYYADSVQGRFTISRDNAKNTVYLQMNSLKPEDTAVYYCANRAPDTRLAPYEYDHWGQGTQVTVSS
notes: not shown: C-terminal c-myc tag and (His)6 tag

binding result (human DLL1 (Alexis) [5]): no binding (tested: 1e-6 M) | binding result (human Jagged-1 (Alexis) [6]): no binding (tested: 1e-6 M) | EC50 (read off the curve) [7]: ~0.6 nM
B4: DLLBII129E11 (VHH)
VHH: B3 VHH with A106R, E109L, H112Y
notes: as for B3

binding result (human DLL1 (Alexis) [5]): no binding (tested: 1e-6 M) | binding result (human Jagged-1 (Alexis) [6]): no binding (tested: 1e-6 M) | EC50 (read off the curve) [7]: ~0.6 nM
B5: DLLBII129D08 (VHH)
VHH: B3 VHH with A106E, E109L, H112Y
notes: as for B3

Alpha Screen hDLL4 % inhibition [8]: 98% | ELISA hDLL4 % inhibition [9]: 98%
B6: DLLBII19F12 (VHH)
VHH: EVQLVESGGGLVQAGGSLRLSCTASGSTFTSYAMGWYRQAPGKQRELVAAISSDDSTYYADCVKGRFTISRDNAKNTVYLQMNSLKPEDTAVYYCNAPHSDYDEEAPSDFGSWGQGTQVTVSS
notes: tested as periplasmic extract; not shown: C-terminal c-myc tag and His6 tag

FMAT mDLL4 % inhibition [3]: 86% | IC50 (read off the curve) [2]: 64 to 70 nM | FMAT hDLL4 % inhibition [4]: 94%
B7: DLLBII104G01 (VHH)
VHH: EVQLVESGGGLVQAGGSLRLSCAASGFTFDDYAIGWFRQAPGKEREGVSCISSSDGSTYYADSVKGRFTISSDNAKNTVYLQMNSLKPEDTAVYYCATAWCDSSWYRSFVGYWGQGTQVTVSS
notes: also called DLLBII104G1; 104G1; not shown: C-terminal c-myc tag and His6 tag

Alpha Screen hDLL4 % inhibition [8]: 54% | ELISA hDLL4 % inhibition [9]: 23%
B8: DLLBII28B06 (VHH)
VHH: EVQLVESGGGLVQAGGSLRLSCAASGSTFSTYAMGWYRQDPGNQRELVAAISSDGSTHYADSVKGRFTISRDNAKNTVYLQMNSLKPEDTAVYYCYAPVKVAGLEYDYWGQGTQVTVSS
notes: tested as periplasmic extract; also called DLLBII28B6; not shown: C-terminal c-myc tag and His6 tag

binding result [1]: binds | IC50 (read off the curve) [2]: ~40 nM
B9: 83G04 (VHH)
VHH: EVQLVESGGGLVKPGGSLRLSCAASGRTLYIMGWYRQAPGKEREFVAGISRYGDITYAADSVKGRFTISRDSVKNTVYLRMNSLKPDDTAVYYCAANGGYCSGYGCYEDSGQYDYWGQGTQVTVSS
notes: also called DLLBII83G04

Alpha Screen hDLL4 % inhibition [8]: 82% | ELISA hDLL4 % inhibition [9]: 93%
B10: DLLBII17G10 (VHH)
VHH: EVQLVESGGGLVQAGGSLRLSCAASGSTFSSYAMGWYRHQAPGKQRELVAAISSDGSTHYADSVKGRFTISRDNAKNTMYLQMNSLKPEDTAVYYCNTKTFGSNWYDDYWGQGTQVTVSS
notes: as for B6

Alpha Screen hDLL4 % inhibition [8]: 88% | ELISA hDLL4 % inhibition [9]: 98%
B11: DLLBII17F10 (VHH)
VHH: EVQLVESGGGLVQAGGSLRLSCASSGRTLLNYAMGWFRQAPGKEREFVSGINWSGGSTYYADSVKGRFTISRDNAENTVYLHMNSLKPEDTAVYYCAAAHDNYWFTDDSLGRGLKYWGQGTQVTVSS
notes: not shown: C-terminal c-myc tag and His6 tag

Alpha Screen hDLL4 % inhibition [8]: 84% | ELISA hDLL4 % inhibition [9]: 82%
B12: DLLBII17C01 (VHH)
VHH: EVQLVESGGGLVQAGGSLRLSCAASGFTFDDYPIGWLRQAPGKEREGVSCISSSDDSTYYADSVKGRFTISSNNAKNTVYLQMNSLKPEDTAVYYCAVRLFSGGCAVVAGTSWADFGSSGQGTQVTVSS
notes: tested as periplasmic extract; also called DLLBII17C1; not shown: C-terminal c-myc tag and His6 tag

Alpha Screen hDLL4 % inhibition [8]: 95% | ELISA hDLL4 % inhibition [9]: 98%
B13: DLLBII19F04 (VHH)
VHH: EVQLVESGGGLVQAEGSLRLSCAASGSTFSTYAMAWYRQAPGKQRELVAGISFDGSTHYAESVKGRFTISRDDAKNTVSLQMNSLKPEDAAVYYCYSVHPSTGFGSWGQGTQVTVSS
notes: also called DLLBII19F4; not shown: C-terminal c-myc tag and His6 tag

binding result (human DLL1 (Alexis) [10]): no binding (tested: 1e-6 M) | binding result (human Jagged-1 (Alexis) [11]): no binding (tested: 1e-6 M)
B14: DLLBII015 (VHH)
VHH: EVQLVESGGGLVQPGGSLRLSCAASGFTIGSYDMSWVRRSPGKGPEWVSAINSGGGSTYYADYVKGRFTISRDNAKNTLYLQMNSLKPEDTAVYYCAADRYIWARQGEYWGAYAYDYWGQGTQVTVSS
notes: as for B3

binding result (human DLL1 (Alexis) [10]): no binding (tested: 1e-6 M) | binding result (human Jagged-1 (Alexis) [11]): no binding (tested: 1e-6 M)
B15: DLLBII133G05 (VHH)
VHH: B14 VHH with I29F, A61T
notes: as for B3

binding result (human DLL1 (Alexis) [10]): no binding (tested: 1e-6 M) | binding result (human Jagged-1 (Alexis) [11]): no binding (tested: 1e-6 M)
B16: DLLBII133A09 (VHH)
VHH: B14 VHH with I29F
notes: as for B3

binding result (human DLL1 (Alexis) [10]): no binding (tested: 1e-6 M) | binding result (human Jagged-1 (Alexis) [11]): no binding (tested: 1e-6 M)
B17: DLLBII136C07 (VHH)
VHH: B14 VHH with I29F, A50S, A114E
notes: as for B3

Alpha Screen hDLL4 % inhibition [8]: 77% | ELISA hDLL4 % inhibition [9]: 76%
B18: DLLBII17B03 (VHH)
VHH: EVQLVESGGGLVQPGGSLRLSCAASGFTFENYALGWFRQAPGKEREWVSCISSSDGTTYYADSVKGRFTISRDNVKNTVYLQMNRLKPEDTAIYYCALSLGSSWCAYDYWGQGTQVTVSS
notes: tested as periplasmic extract; also called DLLBII17B3; not shown: C-terminal c-myc tag and His6 tag
